# Data: US7118879
# Read-outs that look alike come from different tables or passages of the source.
# Columns and labels:
# [1] = molecular target: human neutrophil elastase (immobilized on Reacti-Gel agarose beads, or free) (human) (UniProt P08246); assay: HNE beads, wash
# [2] = molecular target: human neutrophil elastase (immobilized on Reacti-Gel agarose beads, or free) (human) (UniProt P08246); assay: HNE beads, pH 2.0 eluate
# [3] = molecular target: human neutrophil elastase (immobilized on Reacti-Gel agarose beads, or free) (human) (UniProt P08246); assay: HNE beads, pH 2.5 eluate
# [4] = molecular target: human neutrophil elastase (immobilized on Reacti-Gel agarose beads, or free) (human) (UniProt P08246); assay: HNE beads, pH 3.0 eluate
# [5] = molecular target: human neutrophil elastase (immobilized on Reacti-Gel agarose beads, or free) (human) (UniProt P08246); assay: HNE beads, pH 3.5 eluate
# [6] = molecular target: human neutrophil elastase (immobilized on Reacti-Gel agarose beads, or free) (human) (UniProt P08246); assay: HNE beads, pH 4.0 eluate
# [7] = molecular target: human neutrophil elastase (immobilized on Reacti-Gel agarose beads, or free) (human) (UniProt P08246); assay: HNE beads, pH 4.5 eluate
# [8] = molecular target: human neutrophil elastase (immobilized on Reacti-Gel agarose beads, or free) (human) (UniProt P08246); assay: HNE beads, pH 5.0 eluate
# [9] = molecular target: human neutrophil elastase (immobilized on Reacti-Gel agarose beads, or free) (human) (UniProt P08246); assay: HNE beads, pH 5.5 eluate
# [10] = molecular target: human neutrophil elastase (immobilized on Reacti-Gel agarose beads, or free) (human) (UniProt P08246); assay: HNE beads, pH 6.0 eluate
# [11] = molecular target: human neutrophil elastase (immobilized on Reacti-Gel agarose beads, or free) (human) (UniProt P08246); assay: HNE beads, pH 7.0 eluate
# [12] = molecular target: human neutrophil elastase (immobilized on Reacti-Gel agarose beads, or free) (human) (UniProt P08246); assay: HNE beads, pH 2.0 eluate; remark: listed apart in the source
# [13] = molecular target: human neutrophil elastase (immobilized on Reacti-Gel agarose beads, or free) (human) (UniProt P08246); assay: HNE beads, pH 3.5 eluate; remark: listed apart in the source
# [14] = molecular target: human neutrophil elastase (immobilized on Reacti-Gel agarose beads, or free) (human) (UniProt P08246); assay: HNE beads, pH 7.0 eluate; remark: listed apart in the source
# [15] = molecular target: human neutrophil elastase (immobilized on Reacti-Gel agarose beads, or free) (human) (UniProt P08246); assay: HNE beads, pH 2.0 eluate; remark: listed apart in the source
# [16] = molecular target: human neutrophil elastase (immobilized on Reacti-Gel agarose beads, or free) (human) (UniProt P08246); assay: HNE beads, pH 2.5 eluate; remark: listed apart in the source
# [17] = molecular target: human neutrophil elastase (immobilized on Reacti-Gel agarose beads, or free) (human) (UniProt P08246); assay: HNE beads, pH 3.0 eluate; remark: listed apart in the source
# [18] = molecular target: human neutrophil elastase (immobilized on Reacti-Gel agarose beads, or free) (human) (UniProt P08246); assay: HNE beads, pH 3.5 eluate; remark: listed apart in the source
# [19] = molecular target: human neutrophil elastase (immobilized on Reacti-Gel agarose beads, or free) (human) (UniProt P08246); assay: HNE beads, pH 4.0 eluate; remark: listed apart in the source
# [20] = molecular target: human neutrophil elastase (immobilized on Reacti-Gel agarose beads, or free) (human) (UniProt P08246); assay: HNE beads, pH 4.5 eluate; remark: listed apart in the source
# [21] = molecular target: human neutrophil elastase (immobilized on Reacti-Gel agarose beads, or free) (human) (UniProt P08246); assay: HNE beads, pH 5.0 eluate; remark: listed apart in the source
# [22] = molecular target: human neutrophil elastase (immobilized on Reacti-Gel agarose beads, or free) (human) (UniProt P08246); assay: HNE beads, pH 5.5 eluate; remark: listed apart in the source
# [23] = molecular target: human neutrophil elastase (immobilized on Reacti-Gel agarose beads, or free) (human) (UniProt P08246); assay: HNE beads, pH 6.0 eluate; remark: listed apart in the source
# [24] = molecular target: human neutrophil elastase (immobilized on Reacti-Gel agarose beads, or free) (human) (UniProt P08246); assay: HNE beads, pH 7.0 eluate; remark: listed apart in the source
# [25] = molecular target: human neutrophil elastase (immobilized on Reacti-Gel agarose beads, or free) (human) (UniProt P08246); assay: HNE beads, all pH eluates
# [26] = molecular target: human neutrophil elastase (immobilized on Reacti-Gel agarose beads, or free) (human) (UniProt P08246); assay: HNE beads, all pH eluates; remark: listed apart in the source
# [27] = molecular target: human neutrophil elastase (immobilized on Reacti-Gel agarose beads, or free) (human) (UniProt P08246); assay: HNE beads, all pH eluates; remark: listed apart in the source
# [28] = molecular target: human neutrophil elastase (immobilized on Reacti-Gel agarose beads, or free) (human) (UniProt P08246); assay: HNE beads, final TBS-TWEEN wash
# [29] = molecular target: human neutrophil elastase (immobilized on Reacti-Gel agarose beads, or free) (human) (UniProt P08246); assay: pH elution of phage from HNE beads
# [30] = molecular target: human neutrophil elastase (immobilized on Reacti-Gel agarose beads, or free) (human) (UniProt P08246); assay: pH elution of clonal phage from HNE beads (FIG. 9)
# [31] = molecular target: human neutrophil elastase (immobilized on Reacti-Gel agarose beads, or free) (human) (UniProt P08246); assay: HNE beads
# [32] = molecular target: trypsin (active, immobilized on beads, or in solution) (UniProt P00760); assay: trypsin beads
# [33] = molecular target: anhydro-trypsin (agarose-immobilized) (UniProt P00760); assay: anhydrotrypsin beads
# [34] = molecular target: trypsin (active, immobilized on beads, or in solution) (UniProt P00760); assay: eluted from trypsin beads
# [35] = molecular target: human neutrophil elastase (immobilized on Reacti-Gel agarose beads, or free) (human) (UniProt P08246); assay: acid-eluted from HNE beads
# [36] = molecular target: trypsin (active, immobilized on beads, or in solution) (UniProt P00760); assay: acid-eluted from trypsin beads
# [37] = molecular target: anhydro-trypsin (agarose-immobilized) (UniProt P00760); assay: titer after anhydrotrypsin beads
# [38] = molecular target: anhydro-trypsin (agarose-immobilized) (UniProt P00760); assay: eluted from anhydrotrypsin beads
# [39] = molecular target: protein A (agarose beads) (UniProt P38507); assay: titer after protein A beads alone
# [40] = molecular target: anhydro-trypsin (agarose-immobilized) (UniProt P00760); assay: anhydrotrypsin beads, experiment 1
# [41] = molecular target: anhydro-trypsin (agarose-immobilized) (UniProt P00760); assay: anhydrotrypsin beads, experiment 2
# [42] = molecular target: anhydro-trypsin (agarose-immobilized) (UniProt P00760); assay: acid-eluted from anhydrotrypsin beads, experiment 1
# [43] = molecular target: anhydro-trypsin (agarose-immobilized) (UniProt P00760); assay: acid-eluted from anhydrotrypsin beads, experiment 2
# Sequence of trypsin (active, immobilized on beads, or in solution) (P00760 24-246): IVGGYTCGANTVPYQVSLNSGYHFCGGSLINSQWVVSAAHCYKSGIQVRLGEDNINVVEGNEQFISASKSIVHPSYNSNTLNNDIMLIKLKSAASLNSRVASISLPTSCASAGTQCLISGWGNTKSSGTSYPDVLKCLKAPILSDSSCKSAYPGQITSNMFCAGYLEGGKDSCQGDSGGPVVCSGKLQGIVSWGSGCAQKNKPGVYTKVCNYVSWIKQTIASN
# Sequence of human neutrophil elastase (immobilized on Reacti-Gel agarose beads, or free) (human) (P08246 30-247 limits assumed): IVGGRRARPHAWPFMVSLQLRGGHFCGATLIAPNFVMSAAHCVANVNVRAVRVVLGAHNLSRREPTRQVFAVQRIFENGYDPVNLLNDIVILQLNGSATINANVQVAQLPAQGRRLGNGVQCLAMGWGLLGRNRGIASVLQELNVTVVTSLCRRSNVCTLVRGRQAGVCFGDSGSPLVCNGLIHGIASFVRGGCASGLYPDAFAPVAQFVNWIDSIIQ
substance,measurement,setting,value
EpiNE7 phage (designed binder),fraction of input,[1],6e-05
same,fraction of input,[2],9.1e-05
same,total pfu in sample,[2],300000 pfu
same,fraction of input,[3],4.8e-05
same,total pfu in sample,[3],160000 pfu
same,fraction of input,[4],0.0002
same,total pfu in sample,[4],660000 pfu
same,fraction of input,[5],0.00029
same,total pfu in sample,[5],950000 pfu
same,fraction of input,[6],0.00048
same,total pfu in sample,[6],1.6e+06 pfu
same,fraction of input,[7],0.00035
same,total pfu in sample,[7],1.2e+06 pfu
same,fraction of input,[8],0.00029
same,total pfu in sample,[8],950000 pfu
same,fraction of input,[9],0.00028
same,total pfu in sample,[9],940000 pfu
same,fraction of input,[10],0.00041
same,total pfu in sample,[10],1.4e+06 pfu
same,fraction of input,[11],0.00018
same,total pfu in sample,[11],620000 pfu
same,fraction of input,[12],0.001
same,fraction of input,[13],0.003
same,fraction of input,[14],0.0003
same,fraction of input,[15],0.00016
same,total pfu in sample,[15],290000 pfu
same,fraction of input,[16],0.00016
same,total pfu in sample,[16],280000 pfu
same,fraction of input,[17],0.00021
same,total pfu in sample,[17],380000 pfu
same,fraction of input,[18],0.00061
same,total pfu in sample,[18],1.1e+06 pfu
same,fraction of input,[19],0.00094
same,total pfu in sample,[19],1.7e+06 pfu
same,fraction of input,[20],0.00061
same,total pfu in sample,[20],1.1e+06 pfu
same,fraction of input,[21],0.00047
same,total pfu in sample,[21],840000 pfu
same,fraction of input,[22],0.00043
same,total pfu in sample,[22],780000 pfu
same,fraction of input,[23],0.00036
same,total pfu in sample,[23],640000 pfu
same,fraction of input,[24],0.00029
same,total pfu in sample,[24],520000 pfu
same,"fraction of input, SUM of pH elution fractions",[25],0.003
same,"total pfu, SUM of pH elution fractions",[25],6.4e+06 pfu
same,"fraction of input, SUM of pH elution fractions",[26],0.0043
same,"fraction of input, SUM of pH elution fractions",[27],0.0041
same,"total pfu, SUM of pH elution fractions",[27],7.6e+06 pfu
same,fraction of input,[28],0.00012
same,total pfu in sample,[28],380000 pfu
same,pH of elution peak,[29],3.5 pH
same,pH of elution peak,[30],3.5 pH
"M13mp18 phage (wild type, non-display phage)",relative binding (to M13MP18),[31],1 fold
same,relative binding (to M13MP18),[32],1 fold
same,relative binding (to M13MP18),[33],1 fold
same,"eluted phage, % of input",[34],0.00023%
same,"eluted phage, % of input",[35],0.0003%
same,"eluted phage, % of input",[36],0.0005%
same,% of input pfu post incubation,[37],121%
same,"eluted phage, % of input",[38],0.1%
same,% of input pfu,[39],72%
same,binding relative to M13MP18,[40],1 fold
same,binding relative to M13mp18,[41],1 fold
same,"eluted phage, % of input",[42],0.2%
same,"eluted phage, % of input",[43],0.3%
